One may read the Kd as the equilibrium constant for the complex coming apart. Low values mean a tighter complex, high ones a looser complex. As usually defined, the koff is a measure of how fast the partners let go of each other. For orientation: kon means a measure of how fast the partners come together. A higher kon goes with fast association.

We go through 33 molecules from patent US20240294593A1 (Genentech, published 2024).

Numbering of substitutions follows the chain as printed. Numbers in names are those of the source. Like-named read-outs stand apart in the source and are kept apart here.

Assay [1] addresses T1, human PD-1-His (human, UniProt Q15116 25-167, limits assumed).
T1 construct: Antigen of the Octet assays; not shown: His tag
Briefly: Octet. For orientation: In BLI a coated tip is dipped into the sample, and binding shifts an interference pattern.

Assay [2] addresses T1, human PD-1-His. Put plainly: Octet. The source holds these as a separate data set.

T1 sequence (Q15116 25-167 limits assumed): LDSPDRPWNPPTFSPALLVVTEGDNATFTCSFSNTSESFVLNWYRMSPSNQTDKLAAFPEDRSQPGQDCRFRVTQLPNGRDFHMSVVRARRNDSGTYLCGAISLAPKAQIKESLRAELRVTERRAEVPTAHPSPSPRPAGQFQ

B1: H1.135_L1 (antibody, V domains shown)
VH: EVQLVESGGGLVQPGGSLRLSCAASGFTFSSFGMHWVRQAPGKGLEWVSYISSGSSIIYYADSVKGRFTISRDNAKNSLYLQMNSLRAEDTAVYYCARGGRVVWSPDYWGQGTLVTVSS
VL: DIVMTQSPDSLAVSLGERATINCKSSQSLLNSGNQKNYLTWYQQKPGQPPKLLIYWASTRESGVPDRFTGSGSGTDFTLTISSLQAEDVAVYYCQNDYSYPFTFGSGTKLEIKR
notes: also called VH-L110V; Kabat 98
In the assay with human PD-1-His [1], B1 yielded a Kd of 46.7 nM, a koff of 0.00685 s⁻¹ and an on-rate (kon) of 147000 M⁻¹ s⁻¹.

B2: H1.138_L1 (antibody, V domains shown)
VH: B1 VH with V102D
VL: B1 VL
notes: also called VH-L110D; Kabat 98
With B2, in the assay with human PD-1-His [1], binding was characterised by a dissociation constant (Kd) of 116 nM, the koff is 0.0128 s⁻¹ and the association rate constant (kon) stood at 110000 M⁻¹ s⁻¹.

B3: H1.143_L1 (antibody, V domains shown)
VH: B1 VH with V102L, V103I
VL: B1 VL
notes: also called VH-V111I; Kabat 99
With B3, in the assay with human PD-1-His [1], the Kd was found to be 35.6 nM, the dissociation rate constant (koff) stood at 0.00633 s⁻¹ and the kon was 178000 M⁻¹ s⁻¹.

B4: H1_L1.42 (antibody, V domains shown)
VH: B1 VH with V102L
VL: B1 VL with K36D
notes: also called VL-K36D; Kabat 30
In the assay with human PD-1-His [2], B4 had a Kd of 36.5 nM, a koff of 0.0049 s⁻¹ and an on-rate (kon) of 134000 M⁻¹ s⁻¹.

B5: H1_L1.23 (antibody, V domains shown)
VH: B1 VH with V102L
VL: B1 VL with N34D
notes: also called VL-N34D; Kabat 28
Regarding B5, in the assay with human PD-1-His [2], binding was characterised by a dissociation constant (Kd) of 57.6 nM, the koff was determined as 0.006 s⁻¹ and the kon came out at 104000 M⁻¹ s⁻¹.

B6: H1_L1.39 (antibody, V domains shown)
VH: B1 VH with V102L
VL: B1 VL with K36R
notes: also called VL-K36R; Kabat 30
Regarding B6, in the assay with human PD-1-His [2], the dissociation constant (Kd) came to 54.5 nM, the koff is 0.00596 s⁻¹ and the kon is 109000 M⁻¹ s⁻¹.

B7: H1.139_L1 (antibody, V domains shown)
VH: B1 VH with V102A
VL: B1 VL
notes: also called VH-L110A; Kabat 98
In the assay with human PD-1-His [1], B7 had a dissociation constant (Kd) of 98.9 nM, an off-rate constant (koff) of 0.011 s⁻¹ and an on-rate constant (kon) of 111000 M⁻¹ s⁻¹.

B8: H1_L1.27 (antibody, V domains shown)
VH: B1 VH with V102L
VL: B1 VL with N34R
notes: also called VL-N34R; Kabat 28
In the assay with human PD-1-His [2], B8 registered a Kd of 51.5 nM, a koff of 0.0117 s⁻¹ and a kon of 227000 M⁻¹ s⁻¹.

B9: H1.137_L1 (antibody, V domains shown)
VH: B1 VH with V102W
VL: B1 VL
notes: also called VH-L110W; Kabat 98
With B9, in the assay with human PD-1-His [1], the affinity, expressed as Kd, was 32.6 nM; the off-rate (koff) was found to be 0.0056 s⁻¹; the kon was determined as 172000 M⁻¹ s⁻¹.

B10: H1_L1.29 (antibody, V domains shown)
VH: B1 VH with V102L
VL: B1 VL with N34T
notes: also called VL-N34T; Kabat 28
B10: in the assay with human PD-1-His [2], the Kd is 305 nM, the off-rate constant (koff) amounted to 0.0405 s⁻¹ and the on-rate (kon) was determined as 133000 M⁻¹ s⁻¹.

B11: H1_L1.22 (antibody, V domains shown)
VH: B1 VH with V102L
VL: B1 VL with G33Y
notes: also called VL-G33Y; Kabat 27f
For the molecule B11, in the assay with human PD-1-His [2], the Kd is 271 nM, the koff came to 0.0269 s⁻¹ and the kon came to 99100 M⁻¹ s⁻¹.

B12: H1_L1.43 (antibody, V domains shown)
VH: B1 VH with V102L
VL: B1 VL with K36A
notes: also called VL-K36A; Kabat 30
In the assay with human PD-1-His [2], B12 came in with a dissociation constant Kd of 39.8 nM, an off-rate (koff) of 0.00546 s⁻¹ and an on-rate constant (kon) of 137000 M⁻¹ s⁻¹.

B13: H1_L1.34 (antibody, V domains shown)
VH: B1 VH with V102L
VL: B1 VL with Q35N
notes: also called VL-Q35N; Kabat 29
In the assay with human PD-1-His [2], B13 gave a Kd of 42.1 nM, an off-rate (koff) of 0.00451 s⁻¹ and a kon of 107000 M⁻¹ s⁻¹.

B14: H1_L1.26 (antibody, V domains shown)
VH: B1 VH with V102L
VL: B1 VL with N34S
notes: also called VL-N34S; Kabat 28
Consider B14, for which, in the assay with human PD-1-His [2], binding was put at a Kd of 177 nM, the koff amounted to 0.0229 s⁻¹ and the kon is 130000 M⁻¹ s⁻¹.

B15: H1_L1.36 (antibody, V domains shown)
VH: B1 VH with V102L
VL: B1 VL with Q35A
notes: also called VL-Q35A; Kabat 29
In the assay with human PD-1-His [2], B15 had a dissociation constant (Kd) of 60.9 nM, an off-rate (koff) of 0.00678 s⁻¹ and an on-rate constant (kon) of 111000 M⁻¹ s⁻¹.

B16: H1_L1.28 (antibody, V domains shown)
VH: B1 VH with V102L
VL: B1 VL with N34L
notes: also called VL-N34L; Kabat 28
Consider B16, for which, in the assay with human PD-1-His [2], the equilibrium dissociation constant (Kd) is 403 nM, the off-rate (koff) turned out to be 0.0539 s⁻¹ and the association rate constant (kon) was 134000 M⁻¹ s⁻¹.

B17: H1.144_L1 (antibody, V domains shown)
VH: B1 VH with V102L, V103L
VL: B1 VL
notes: also called VH-V111L; Kabat 99
For B17, in the assay with human PD-1-His [1], the affinity, expressed as Kd, was 130 nM; the koff is 0.0174 s⁻¹; the on-rate (kon) turned out to be 134000 M⁻¹ s⁻¹.

B18: H1_L1.38 (antibody, V domains shown)
VH: B1 VH with V102L
VL: B1 VL with Q35I
notes: also called VL-Q35I; Kabat 29
In the assay with human PD-1-His [2], B18 came in with a dissociation constant (Kd) of 30.5 nM, a koff of 0.00439 s⁻¹ and an on-rate (kon) of 144000 M⁻¹ s⁻¹.

B19: H1_L1.30 (antibody, V domains shown)
VH: B1 VH with V102L
VL: B1 VL with N34G
notes: also called VL-N34G; Kabat 28
On to B19, for which, in the assay with human PD-1-His [2], the dissociation constant (Kd) stood at 61.9 nM, the koff is 0.00901 s⁻¹ and the on-rate (kon) came out at 146000 M⁻¹ s⁻¹.

B20: H1.141_L1 (antibody, V domains shown)
VH: B1 VH with V102K
VL: B1 VL
notes: also called VH-L110K; Kabat 98
In the assay with human PD-1-His [1], B20 yielded a dissociation constant Kd of 118 nM, a koff of 0.0132 s⁻¹ and an association rate constant (kon) of 112000 M⁻¹ s⁻¹.

B21: H1.136_L1 (antibody, V domains shown)
VH: B1 VH with V102Y
VL: B1 VL
notes: also called VH-L110Y; Kabat 98
In the assay with human PD-1-His [1], B21 had a Kd of 54.5 nM, a koff of 0.00863 s⁻¹ and a kon of 158000 M⁻¹ s⁻¹.

B22: mAb C H1.132_L1 (antibody, V domains shown)
VH: B1 VH with R101W, V102L
VL: B1 VL
notes: copies: 2 + 2
As for B22, in the assay with human PD-1-His [1], the Kd was 9.63 nM, the koff came to 0.00218 s⁻¹ and the kon is 227000 M⁻¹ s⁻¹.

B23: H1_L1.33 (antibody, V domains shown)
VH: B1 VH with V102L
VL: B1 VL with Q35H
notes: also called VL-Q35H; Kabat 29
B23: in the assay with human PD-1-His [2], the Kd was 42.7 nM, the koff was found to be 0.00566 s⁻¹ and the kon is 133000 M⁻¹ s⁻¹.

B24: H1_L1.37 (antibody, V domains shown)
VH: B1 VH with V102L
VL: B1 VL with Q35F
notes: also called VL-Q35F; Kabat 29
Turning to B24, in the assay with human PD-1-His [2], the affinity, expressed as Kd, was 29 nM; the koff was 0.00364 s⁻¹; the kon is 126000 M⁻¹ s⁻¹.

B25: H1_L1.32 (antibody, V domains shown)
VH: B1 VH with V102L
VL: B1 VL with Q35E
notes: also called VL-Q35E; Kabat 29
In the assay with human PD-1-His [2], B25 returned a Kd of 35 nM, a koff of 0.00476 s⁻¹ and an association rate constant (kon) of 136000 M⁻¹ s⁻¹.

B26: H1.145_L1 (antibody, V domains shown)
VH: B1 VH with V102L, V103A
VL: B1 VL
notes: also called VH-V111A; Kabat 99
In the assay with human PD-1-His [1], B26 showed a dissociation constant Kd of 110 nM, a koff of 0.0177 s⁻¹ and a kon of 161000 M⁻¹ s⁻¹.

B27: H1_L1.40 (antibody, V domains shown)
VH: B1 VH with V102L
VL: B1 VL with K36E
notes: also called VL-K36E; Kabat 30
In the assay with human PD-1-His [2], B27 gave an equilibrium dissociation constant (Kd) of 38.1 nM, a koff of 0.00455 s⁻¹ and a kon of 120000 M⁻¹ s⁻¹.

B28: H1_L1.24 (antibody, V domains shown)
VH: B1 VH with V102L
VL: B1 VL with N34H
notes: also called VL-N34H; Kabat 28
For B28, in the assay with human PD-1-His [2], binding was put at a Kd of 200 nM, the koff stood at 0.0183 s⁻¹ and the kon is 91600 M⁻¹ s⁻¹.

B29: H1_L1.41 (antibody, V domains shown)
VH: B1 VH with V102L
VL: B1 VL with K36H
notes: also called VL-K36H; Kabat 30
In the assay with human PD-1-His [2], B29 had a dissociation constant Kd of 39.7 nM, a koff of 0.00508 s⁻¹ and an on-rate constant (kon) of 128000 M⁻¹ s⁻¹.

B30: H1_L1.25 (antibody, V domains shown)
VH: B1 VH with V102L
VL: B1 VL with N34E
notes: also called VL-N34E; Kabat 28
Consider B30, for which, in the assay with human PD-1-His [2], binding was put at a Kd of 152 nM, the koff was 0.0123 s⁻¹ and the kon turned out to be 80900 M⁻¹ s⁻¹.

B31: H1_L1.35 (antibody, V domains shown)
VH: B1 VH with V102L
VL: B1 VL with Q35K
notes: also called VL-Q35K; Kabat 29
As for B31, in the assay with human PD-1-His [2], the affinity, expressed as Kd, was 57.6 nM; the koff was found to be 0.00638 s⁻¹; the on-rate (kon) is 111000 M⁻¹ s⁻¹.

B32: H1.146_L1 (antibody, V domains shown)
VH: B1 VH with V102L, V103Y
VL: B1 VL
notes: also called VH-V111Y; Kabat 99
Take B32: in the assay with human PD-1-His [1], the Kd is 102 nM, the koff was 0.0157 s⁻¹ and the kon was 155000 M⁻¹ s⁻¹.

B33: H1.142_L1 (antibody, V domains shown)
VH: B1 VH with V102L, V103T
VL: B1 VL
notes: also called VH-V111T; Kabat 99
In the assay with human PD-1-His [1], B33 came in with a dissociation constant (Kd) of 88 nM, an off-rate (koff) of 0.0118 s⁻¹ and an association rate constant (kon) of 134000 M⁻¹ s⁻¹.
